According to article PMC2171992 (The Journal of Cell Biology, 2004):
Positions count from the first letter of the chain named. Names may count otherwise.

B1: wild-type yeast capping protein (Cap1/Cap2) (complex)
chain 1: MSSSKFEEVINKIINDSPPGELREVYDDLIKITSENSKNTILDAIENYNVQNCIPIEVNGNSVIISKYNKEGAKFFDPVNSVIFSVNHLERKGLDIEPYEFTHAKIEKGQLKELHDKLHEYLLQSFPGDVSFAVYPVPEEISKISIIIVSTKYNPNNFWNGHWRSSYIYDLETRELSGQISTQVHYYEDGNVSFQSGKDINQSNVDDVVCTIRDIETNFENDLDLSFFDLNEKQFKALRRRLPVTRSKINWGSAIGSYRLGKNAAEGK
chain 2: MSDAQFDAALDLLRRLNPTTLQENLNNLIELQPNLAQDLLSSVDVPLSTQKDSADSNREYLCCDYNRDIDSFRSPWSNTYYPELSPKDLQDSPFPSAPLRKLEILANDSFDVYRDLYYEGGISSVYLWDLNEEDFNGHDFAGVVLFKKNQSDHSNWDSIHVFEVTTSPSSPDSFNYRVTTTIILHLDKTKTDQNSHMMLSGNLTRQTEKDIAIDMSRPLDVIFTSHVANLGSLIEDIESQMRNLLETVYFEKTRDIFHQTKNAAIASSAEEANKDAQAEVIRGLQSL
B2: Cap1/Cap2Δ(261–287) (complex)
chain 1: B1 chain 1
chain 2: MSDAQFDAALDLLRRLNPTTLQENLNNLIELQPNLAQDLLSSVDVPLSTQKDSADSNREYLCCDYNRDIDSFRSPWSNTYYPELSPKDLQDSPFPSAPLRKLEILANDSFDVYRDLYYEGGISSVYLWDLNEEDFNGHDFAGVVLFKKNQSDHSNWDSIHVFEVTTSPSSPDSFNYRVTTTIILHLDKTKTDQNSHMMLSGNLTRQTEKDIAIDMSRPLDVIFTSHVANLGSLIEDIESQMRNLLETVYFEKTRDIFHQT
B3: Cap1/Cap2Δ(264–287) (complex)
chain 1: B1 chain 1
chain 2: MSDAQFDAALDLLRRLNPTTLQENLNNLIELQPNLAQDLLSSVDVPLSTQKDSADSNREYLCCDYNRDIDSFRSPWSNTYYPELSPKDLQDSPFPSAPLRKLEILANDSFDVYRDLYYEGGISSVYLWDLNEEDFNGHDFAGVVLFKKNQSDHSNWDSIHVFEVTTSPSSPDSFNYRVTTTIILHLDKTKTDQNSHMMLSGNLTRQTEKDIAIDMSRPLDVIFTSHVANLGSLIEDIESQMRNLLETVYFEKTRDIFHQTKNA
B4: Cap1 (R239A)/Cap2 (complex)
chain 1: B1 chain 1 with R239A
chain 2: B1 chain 2
B5: Cap1 (W251A)/Cap2 (complex)
chain 1: B1 chain 1 with W251A
chain 2: B1 chain 2
B6: Cap1Δ(239–268)/Cap2Δ(264–287) (complex)
chain 1: MSSSKFEEVINKIINDSPPGELREVYDDLIKITSENSKNTILDAIENYNVQNCIPIEVNGNSVIISKYNKEGAKFFDPVNSVIFSVNHLERKGLDIEPYEFTHAKIEKGQLKELHDKLHEYLLQSFPGDVSFAVYPVPEEISKISIIIVSTKYNPNNFWNGHWRSSYIYDLETRELSGQISTQVHYYEDGNVSFQSGKDINQSNVDDVVCTIRDIETNFENDLDLSFFDLNEKQFKAL
chain 2: B3 chain 2
B7: Cap1(Δ239–268)/Cap2(Δ261–287) (complex)
chain 1: B6 chain 1
chain 2: B2 chain 2

Target: T1, muscle actin (UniProt P68135 1-377, labeled with pyrene)
Experiment: seeded actin assembly kinetics

Binder | Kd [nM] | koff [s⁻¹] | kon [M⁻¹ s⁻¹]
B1 | 1.2 | 0.00156 | 1.16e+06
B2 | 7.8 | 0.0163 | 2.09e+06
B3 | 8 | 0.017 | 2.1e+06
B4 | 176 | 0.0275 | 156000
B5 | 91 | 0.0259 | 300000
B6 | 33400 | 0.012 | 370

Target: T1, muscle actin
Experiment: apparent critical concentration for actin polymerization at steady state

Binder | Kd [nM]
B7 | ≥ 100000

Target: T1, muscle actin
Experiment: as above
Remark: another data set of the same source

Binder | Kd [nM]
B1 | 4
B2 | 25
B3 | 25
B4 | 400
B5 | 250
